T1: human CX3CR1 (human, UniProt P49238 1-355)
T1 sequence: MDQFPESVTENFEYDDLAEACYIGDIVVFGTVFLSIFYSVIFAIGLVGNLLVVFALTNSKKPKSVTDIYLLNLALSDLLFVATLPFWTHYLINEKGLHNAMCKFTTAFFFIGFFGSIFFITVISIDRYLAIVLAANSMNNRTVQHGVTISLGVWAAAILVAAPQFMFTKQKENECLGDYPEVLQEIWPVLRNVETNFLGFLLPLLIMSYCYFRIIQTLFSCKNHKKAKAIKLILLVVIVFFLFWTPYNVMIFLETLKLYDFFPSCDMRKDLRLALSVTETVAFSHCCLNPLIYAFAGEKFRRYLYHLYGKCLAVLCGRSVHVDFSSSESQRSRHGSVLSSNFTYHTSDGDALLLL

T2: cynomolgus CX3CR1 (cynomolgus, UniProt P49238 1-355 (human entry))
T2 construct: transiently expressed on HEK293T cells; also called cyCX3CR1; cyno CX3CR1
T2 chain: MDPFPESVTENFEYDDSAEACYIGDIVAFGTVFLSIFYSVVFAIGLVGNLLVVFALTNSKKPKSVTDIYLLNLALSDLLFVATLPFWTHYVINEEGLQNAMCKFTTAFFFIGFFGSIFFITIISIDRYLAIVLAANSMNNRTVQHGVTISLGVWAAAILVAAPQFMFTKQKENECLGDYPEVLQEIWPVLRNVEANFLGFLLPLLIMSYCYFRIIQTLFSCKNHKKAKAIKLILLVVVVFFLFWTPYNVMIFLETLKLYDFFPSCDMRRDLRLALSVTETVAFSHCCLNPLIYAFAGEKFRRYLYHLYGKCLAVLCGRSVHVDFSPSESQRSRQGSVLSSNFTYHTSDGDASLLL

B1: CX3CR1BIIPMP54B3 (VHH)
VHH: EVQLVESGGGSVQAGESLRLSCAASGSIFSSNAMAWYRQAPGKQRDLVAAINSVGITKYADSVKGRFTISRDNAKNTVYLQMNSLKPEDTAVYYCTSDPRRGWDTRYWGQGTQVTVSS
notes: also called 54B03; not shown: C-terminal c-myc and His6 tags
B2: CX3CR1BIIPMP54D8 (VHH)
VHH: B1 VHH with E16G, A50G, Q113L
notes: also called 54D08; CX3CR1BII54D08; not shown: C-terminal c-myc and His6 tags
B3: CX3CR1BIIPMP66G01 (VHH)
VHH: B1 VHH with V2M, A50L, P99G
notes: also called CX3CR1BII66G01; not shown: C-terminal c-myc and His6 tags
B4: CX3CR1BII66B02 (S53P, Q108L) (VHH, name in Kabat numbering)
VHH: B1 VHH with Q44R, S53P, I56V, Q113L
notes: Kabat numbering
B5: CX3CR1BII66B02 (N52S, Q108L) (VHH, name in Kabat numbering)
VHH: B1 VHH with Q44R, N52S, I56V, Q113L
B6: CX3CR1BII66B02 (S53G, Q108L) (VHH, name in Kabat numbering)
VHH: B1 VHH with Q44R, S53G, I56V, Q113L
notes: Kabat numbering
B7: CX3CR1BII66B02 (S53T, Q108L) (VHH, name in Kabat numbering)
VHH: B1 VHH with Q44R, S53T, I56V, Q113L
notes: Kabat numbering
B8: CX3CR1BII66B02 (N52T, Q108L) (VHH, name in Kabat numbering)
VHH: B1 VHH with Q44R, N52T, I56V, Q113L
notes: Kabat numbering
B9: CX3CR1BIIPMP54A4 (VHH)
VHH: B1 VHH with G9R, A50G
notes: also called 54A04; not shown: C-terminal c-myc and His6 tags
B10: CX3CR1BIIPMP61G4 (VHH)
VHH: B1 VHH with E1K, E16G, N83M
notes: also called 61G04; not shown: C-terminal c-myc and His6 tags
B11: CX3CR1BIIPMP61G3 (VHH)
VHH: B1 VHH with E1K, V12M, N83M
notes: also called 61G03; not shown: C-terminal c-myc and His6 tags
B12: CX3CR1BIIPMP61B2 (VHH)
VHH: B1 VHH with G8R, E16A, A50V, S53T, P99A
notes: also called 61B02; not shown: C-terminal c-myc and His6 tags
B13: CX3CR1BIIPMP54H1 (VHH)
VHH: B1 VHH with S27T, A50G, G55D, I69V, D104N
notes: also called 54H01; not shown: C-terminal c-myc and His6 tags
B14: CX3CR1BIIPMP61E2 (VHH)
VHH: B1 VHH with A50G, T90M
notes: also called 61E02; not shown: C-terminal c-myc and His6 tags
B15: CX3CR1BIIPMP61F11 (VHH)
VHH: B1 VHH with E1K, A40P, S70F
notes: not shown: C-terminal c-myc and His6 tags

Residue numbers refer to the chain shown, from its start. Names and notes keep the numbering of the source.

The target in the first experiment is T1, human CX3CR1. Description: cell-based or functional assay.
Regarding B1, the “% block, fractalkine induced chemotaxis” value was determined as 73% and the “IC50, fractalkine induced chemotaxis” value was 100 nM.

Consider B2, for which the “% block, fractalkine induced chemotaxis” value amounted to 33%.

In the case of B3, the “% block, fractalkine induced chemotaxis” value was found to be 54% and the “IC50, fractalkine induced chemotaxis” value amounted to 400 nM.

The target in a further experiment is T1, human CX3CR1. Description: fractalkine competition FACS.
Regarding B4, the “% block” value turned out to be 98.2% and the IC50 was determined as 0.8 nM.

In the case of B5, the “% block” value came to 98% and the IC50 was 1.7 nM.

Turning to B6, the “% block” value is 98.3% and the IC50 is 1.2 nM.

Turning to B7, the “% block” value came to 98.1% and the IC50 is 1.3 nM.

As for B8, the “% block” value came out at 98% and the IC50 is 2.8 nM.

The target in a further experiment is T1, human CX3CR1. The experiment can be described thus: A647-fractalkine competition FACS, CHO-huCX3CR1. The text has this:
(§1) Periplasmic extracts were screened in a human CX3CR1/human Fractalkine FACS competition assay to assess the blocking capacity of the expressed VHHs. Human CX3CR1 was presented on CHO cells overexpressing CX3CR1. Both a setup using cells harvested from an actively growing culture and a setup using frozen cells was used. As a detection reagent labeled fractalkine was used (R&D Systems, Minneapolis, Minn., USA) labeled with alexa647 (A647-Fractalkine) at a degree of labeling of 1. To setup the assay, first a titration series of the labeled fractalkine was performed on the CHO-huCX3CR1 cells in order to determine the EC50 value for binding. Initially screening was performed at a higher concentration of fractalkine (3 nM) to increase the assay robustness. To increase the sensitivity of the screening to a maximum, the EC30 concentration (1 nM) was chosen for subsequent screening. In brief 50 μl of periplasmic extract was added to 6 nM labeled fractalkine (50 μ;) and 200 000 CHO-huCX3CR1 cells. After one hour incubation at 4 C, cells were washed three times before read out was performed on a FACS Array (Becton Dickinson). First a gate was set on the intact cells as determined from the scatter profile. Next, dead cells were gated out by their fluorescence profile from the PI stain (Sigma, St Louis, US). The fluorescence profile from the alexa647 label was determined for each sample and used for calculation of blocking capacity. As controls, conditions were taken along where there was no VHH present in the peri extract or a known irrelevant VHH and samples were included where excess cold fractalkine was included. For each sample the percentage block was determined using the control samples to determine the assay window.
(§2) The blocking capacity towards the ligand fractalkine of the VHHs was evaluated in a human CX3CR1 competition FACS as outlined in Example 4. Either CHO-huCX3CR1 cells, BA/F3-huCX3CR1 cells or transiently transfected HEK293T cells were used. The amount of labeled ligand used in the different competition setups was also varied. The IC₅₀ values for VHHs blocking the interaction of human fractalkine to human CX3CR1 are depicted in Table 19.
B1: the “% block” value was found to be 108% and the IC50 amounted to 25 nM.

Consider B2, for which the “% block” value amounted to 101% and the IC50 turned out to be 15 nM.

The next experiment addresses T1, human CX3CR1. Description: A647-fractalkine competition FACS, BA/F3-huCX3CR1.
Description: as §1, §2
As to B1, the “% block” value came to 99% and the IC50 was found to be 33 nM.

Take B2: the “% block” value amounted to 99% and the IC50 is 38 nM.

In a further experiment the target is T1, human CX3CR1. Description: A647-fractalkine competition FACS, HEK293-huCX3CR1.
Description: as §1, §2
As to B1, the “% block” value was determined as 92% and the IC50 was 67 nM.

Regarding B9, the “% block” value was found to be 100% and the IC50 was 49 nM.

Take B10: the “% block” value worked out at 96% and the IC50 turned out to be 42 nM.

Take B11: the “% block” value was found to be 96% and the IC50 was 60 nM.

Consider B2, for which the “% block” value is 95% and the IC50 was 84 nM.

For the molecule B12, the “% block” value came out at 94% and the IC50 was determined as 10 nM.

For B3, the “% block” value is 99% and the IC50 came to 14 nM.

For B13, the “% block” value came out at 64% and the IC50 came out at 10 nM.

As to B14, the “% block” value amounted to 98% and the IC50 was found to be 82 nM.

On to B15, for which the “% block” value stood at 96% and the IC50 came out at 46 nM.

Another experiment has as its target T1, human CX3CR1. The experiment can be described thus: A647-fractalkine competition FACS, HEK293T human CX3CR1.
Description: as §1
(§3) For later identified VHHs, a human Fractalkine competition FACS was set up using human or cynomolgus CX3CR1 expressed in HEK293T cells. Both the human and the cynomolgus receptor was transiently transfected in HEK293T cells and transfections were matched by the binding of the labeled ligand, human fractalkine. The competition was evaluated using the EC30 concentration of fractalkine and as such obtained IC50 values are a good estimate of the Ki value, a measure for affinity (Table 22). The experiment was performed as described in Example 4.
Take B1: the “% block” value was determined as 92% and the IC50 is 67 nM.

For the molecule B9, the “% block” value came to 100% and the IC50 was 49 nM.

Turning to B10, the “% block” value came out at 96% and the IC50 is 42 nM.

On to B11, for which the “% block” value came out at 96% and the IC50 stood at 60 nM.

On to B2, for which the “% block” value came to 95% and the IC50 turned out to be 84 nM.

Take B12: the “% block” value came to 94% and the IC50 was 10 nM.

Regarding B3, the “% block” value turned out to be 99% and the IC50 is 14 nM.

Turning to B13, the “% block” value came to 64% and the concentration for half-maximal inhibition (IC50) was 10 nM.

With B14, the “% block” value stood at 98% and the IC50 was 82 nM.

On to B15, for which the “% block” value is 96% and the IC50 was 46 nM.

The next experiment concerns the target T2, cynomolgus CX3CR1. The experiment can be described thus: A647-fractalkine competition FACS, HEK293T cynomolgus CX3CR1.
Description: as §1, §3
As for B1, the “% block” value came out at 95% and the IC50 worked out at 470 nM.

In the case of B9, the “% block” value came to 91% and the half-inhibitory concentration (IC50) amounted to 31 nM.

On to B10, for which the “% block” value was 100% and the IC50 was 200 nM.

In the case of B11, the “% block” value turned out to be 89% and the IC50 amounted to 300 nM.

B2: the “% block” value is 91% and the IC50 was determined as 72 nM.

In the case of B12, the “% block” value is 92% and the IC50 worked out at 45 nM.

Regarding B3, the “% block” value stood at 100% and the IC50 was found to be 120 nM.

In the case of B13, the “% block” value was 92% and the IC50 was determined as 68 nM.

Regarding B14, the “% block” value turned out to be 96% and the IC50 turned out to be 46 nM.

B15: the “% block” value was found to be 95% and the IC50 is 160 nM.

In another experiment the target is T2, cynomolgus CX3CR1. The experiment can be described thus: A647-fractalkine competition FACS, cynomolgus against human CX3CR1.
Description: as §1, §3
Turning to B1, the “ratio (cynomolgus/human IC50)” value is 7.05.

As to B9, the “ratio (cynomolgus/human IC50)” value was found to be 0.64.

On to B10, for which the “ratio (cynomolgus/human IC50)” value was 4.8.

On to B11, for which the “ratio (cynomolgus/human IC50)” value amounted to 5.02.

As to B2, the “ratio (cynomolgus/human IC50)” value worked out at 0.85.

B12: the “ratio (cynomolgus/human IC50)” value worked out at 4.37.

On to B3, for which the “ratio (cynomolgus/human IC50)” value came out at 8.29.

B13: the “ratio (cynomolgus/human IC50)” value came out at 6.48.

Take B14: the “ratio (cynomolgus/human IC50)” value is 0.55.

On to B15, for which the “ratio (cynomolgus/human IC50)” value came out at 3.58.

The target in the next experiment is T1, human CX3CR1. Description: periplasmic extract, A647-fractalkine competition FACS, CHO-huCX3CR1.
Description: as §1
As for B1, the “% block” value was found to be 90.1%.

Turning to B9, the “% block” value is 86.6%.

Consider B10, for which the “% block” value stood at 94.5%.

For B11, the “% block” value worked out at 92.1%.

Regarding B2, the “% block” value amounted to 64.1%.

On to B12, for which the “% block” value was 94.5%.

Consider B13, for which the “% block” value was determined as 74.6%.

For B14, the “% block” value was found to be 70.3%.

With B15, the “% block” value worked out at 96.5%.

For orientation: IC50 means the concentration that gives 50% inhibition. Read a high IC50 as weaker potency.

(Values after US20130224224A1 (Boehringer Ingelheim, published 2013).)
